{
  "source": "paper PMC5932363",
  "target": "Proteinase 3 (PR3), purified (UniProt P24158)",
  "sequence (P24158 28-248)": "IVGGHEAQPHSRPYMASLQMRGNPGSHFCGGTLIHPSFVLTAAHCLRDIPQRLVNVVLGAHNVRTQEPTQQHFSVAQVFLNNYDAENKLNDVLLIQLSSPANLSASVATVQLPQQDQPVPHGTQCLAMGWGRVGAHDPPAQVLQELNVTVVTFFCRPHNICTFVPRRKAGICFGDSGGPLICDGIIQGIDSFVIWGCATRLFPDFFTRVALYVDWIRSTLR",
  "assay": "SPR; BIAcore 3000; PR3 immobilised on a CM5 chip by amine coupling; C1q, gC1q or cC1q as soluble analytes; 50 mM Tris, 150 mM NaCl, 2 mM Ca2+, 0.005% surfactant P20, pH 7.4; flow 20 µl/min; global fit to a 1:1 Langmuir model; apparent KD from koff/kon",
  "data": [
    {"substance": "globular region of C1q (gC1q) (domain or fragment)", "values": [
      {"measurement": "Kd", "value": 400, "unit": "nM"},
      {"measurement": "koff", "value": 0.0072, "unit": "s⁻¹"},
      {"measurement": "kon", "value": 18000, "unit": "M⁻¹ s⁻¹"}
    ]}
  ]
}
